Reference: article PMC9544338

Tests used:
Assay in all cases: co-IP; N2a cells cotransfected with His6-RGS19 and Gαo-GFP (C-terminally tagged) variants, treated with 1 μM ZPT for 3 hours before IP of Gαo with a nanobody against GFP; Western blot; fold against DMSO-treated cells
[1] = target: Gαo[E246K]-GFP (C-terminally tagged) (human), P09471; details: remark: other sources report otherwise
[2] = target: Gαo[G203R]-GFP (C-terminally tagged) (human), P09471
[3] = target: Gαo[R209C]-GFP (C-terminally tagged) (human), P09471; details: remark: other sources report otherwise

B1: His6-RGS19, P49795 1-217 (other documents disagree on this pair)
chain: MPTPHEAEKQITGPEEADRPPSMSSHDTASPAAPSRNPCCLCWCCCCSCSWNQERRRAWQASRESKLQPLPSCEVCATPSPEEVQSWAQSFDKLMHSPAGRSVFRAFLRTEYSEENMLFWLACEELKAEANQHVVDEKARLIYEDYVSILSPKEVSLDSRVREGINKKMQEPSAHTFDDAQLQIYTLMHRDSYPRFLSSPTYRALLLQGPSQSSSEA
fold increase of the interaction by ZPT over DMSO [1]: 12 fold
fold increase of the interaction by ZPT over DMSO [2]: 20 fold
fold increase of the interaction by ZPT over DMSO [3]: 6 fold
